According to patent publication US6610535B1, “Progenitor cells and methods and uses related thereto” (ES Cell International Pte Ltd., priority 2000, dated 2003):
“Also recorded” adds a separate entry of the source.

Experiments:
[1] = system: pancreatic duct epithelial cells; assay: PNA-FITC lectin histochemistry of pancreas; assay type: binding, rat
Procedure: Paraffin sections of adult human pancreas, adult rat pancreas, embryonic rat pancreas, or cryosections of adult mouse pancreas were used. Alternatively, Time 0 duct or cultured duct preparations from 2 week old rat pancreas were examined, with or without paraformaldehyde fixation. PNA-FITC was used usually at 1:250 dilution in PBS or DMEM/HEPES medium and incubated for 1 hr to overnight at 4° C., then washed and mounted under VectaShield mounting medium containing DAPI. Cells stained without prior fixation were post-fixed before addition of mounting medium.

T0 duct prep = assay: PNA-FITC FACS of dispersed duct cells; assay type: binding, rat; conditions: by FACS analysis
Procedure: PNA-FITC was diluted 1:250 in sterile wash buffer (Ca++ Mg++-free PBS containing 1% FBS). Dispersed live cells (approx. 2×10^6 cells) were spun down and resuspended in 100 μl of lectin and incubated for 30-45 min at 4° C. Cells were then washed twice with sterile wash buffer, resuspended in 2 ml of Iscoveís modified DMEM containing 5% FBS, Pen/Strep, 1 mM glutamine, and held on ice until run on the FACSVantage. Standard FACS procedures were used.

B1: PNA: plant lectin that binds to galactosyl (β-1,3) N-acetyl galactosamine (protein, UniProt P02872 24-273, looked up)
Galactose-binding lectin: AETVSFNFNSFSEGNPAINFQGDVTVLSNGNIQLTNLNKVNSVGRVLYAMPVRIWSSATGNVASFLTSFSFEMKDIKDYDPADGIIFFIAPEDTQIPAGSIGGGTLGVSDTKGAGHFVGVEFDTYSNSEYNDPPTDHVGIDVNSVDSVKTVPWNSVSGAVVKVTVIYDSSTKTLSVAVTNDNGDITTIAQVVDLKAKLPERVKFGFSASGSLGGRQIHLIRSWSFTSTLITTTRRSIDNNEKKIMNMASA
- labelling of the major pancreatic duct (common bile duct, CBD) [1]: does not mark
- labelling of blood vessels or stromal cells ([1]; by immunohistochemistry): does not mark
- labelling of islet cells ([1]; rat): did NOT label; also recorded: does NOT mark
- labelling of duct epithelial cells ([1]; rat pancreas): DID label; also recorded: marks the single layer of epithelial cells
- PNA-positive fraction of T0 duct prep (T0 duct prep): 5-15%
